In patent US20240181084:

System: TALEN-integrase (HIV IN deltaC) fusion pair targeting eGFP, 16 bp spacer
Experiment: cell_activity
Details: chloramphenicol-resistant colonies vs untargeted integrase; COS-7 plasmid integration assay

eGFP TALEN pair target, 16 bp spacer
activity: 6 fold
